Legend:
[1] = molecular target: NanoBiT Gq: Gαq–LgBiT (wild type) co-expressed with Gβ1 and Gγ2, P50148;P62873;P59768; assay: NanoBiT assay (M3-SmBiT with Gαq–LgBiT, Gβ1, Gγ2), ACh titration; conditions: titrated concentrations of acetylcholine; parent: est. -0.1 (WT 1:4, expression-matched; WT 1:1 = 0); read off a plot
[2] = molecular target: NanoBiT Gq: Gαq–LgBiT (wild type) co-expressed with Gβ1 and Gγ2, P50148;P62873;P59768; assay: NanoBiT assay (M3-SmBiT with Gαq–LgBiT, Gβ1, Gγ2), basal; conditions: absence of agonist; parent: est. 78 (WT 1:4, expression-matched; WT 1:1 = 100); read off a plot

other: ΔpEC50 [1]	percent of parent [2]	Substance
-0.2	46 %RLU	ssHA-FLAG-M3-SmBiT (wild type), P20309 M3-6A (C-tail KKKRRK to AAAAAA)
-0.3	50 %RLU	ssHA-FLAG-M3-SmBiT (wild type), P20309 M3-GS (C-tail KKKRRK to GSGSGS)

From paper PMC10960872
